From patent US20180320194A1 (PURDUE RESEARCH FOUNDATION, published 2018)

Columns and labels:
[1] = molecular target: T1, PYL9 fused to the GAL4-DNA-binding domain (BD-PYL9) (Arabidopsis); test: yeast two-hybrid, growth on media lacking His with and without ABA
T1 construct: Y2H bait; also called pBD-GAL4-PYL9

ABF2, Q9M7Q4 = molecular target: T2, ABF2, Q9M7Q4
T2 chain: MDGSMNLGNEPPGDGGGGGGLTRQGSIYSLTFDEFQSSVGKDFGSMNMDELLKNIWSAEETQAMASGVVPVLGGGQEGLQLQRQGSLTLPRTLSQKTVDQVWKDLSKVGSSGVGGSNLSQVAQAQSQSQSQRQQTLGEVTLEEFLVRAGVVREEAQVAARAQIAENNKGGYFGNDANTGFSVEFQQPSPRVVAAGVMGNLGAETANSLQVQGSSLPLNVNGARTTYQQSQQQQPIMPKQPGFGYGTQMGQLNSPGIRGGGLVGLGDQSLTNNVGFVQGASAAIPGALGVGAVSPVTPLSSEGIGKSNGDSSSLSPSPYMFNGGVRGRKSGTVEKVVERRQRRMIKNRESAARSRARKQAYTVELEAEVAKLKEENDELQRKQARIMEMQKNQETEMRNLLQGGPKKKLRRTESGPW

PP2CA = molecular target: T3, PP2CA (Arabidopsis, UniProt P49598 1-399); test: tandem affinity purification (anti-HA agarose, GFP-Trap) from seedlings, MS identification
T3 construct: Endogenous protein co-purified from seedlings and identified by MS
T3 sequence (looked up): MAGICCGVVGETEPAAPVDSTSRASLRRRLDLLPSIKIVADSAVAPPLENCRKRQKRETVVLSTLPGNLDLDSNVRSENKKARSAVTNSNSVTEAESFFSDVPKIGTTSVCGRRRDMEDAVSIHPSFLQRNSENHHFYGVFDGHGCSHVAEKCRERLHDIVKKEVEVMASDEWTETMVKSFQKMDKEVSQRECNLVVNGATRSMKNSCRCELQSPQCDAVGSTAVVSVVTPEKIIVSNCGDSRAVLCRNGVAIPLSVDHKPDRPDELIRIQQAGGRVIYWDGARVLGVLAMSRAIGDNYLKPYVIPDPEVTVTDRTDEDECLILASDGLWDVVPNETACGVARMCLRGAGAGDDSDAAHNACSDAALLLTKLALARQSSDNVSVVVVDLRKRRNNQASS
Description: (§1) Ten-day-old seedlings of the transgenic Arabidopsis plants expressing ProPYL9:PYL9-HA-YFP (FIG. 12A) were used for tandem affinity purification. Seedlings (3-4 g fresh weight) were treated for 1 h with ½ Murashige and Skoog medium containing 100 μM ABA or 30 min with ½ Murashige and Skoog medium containing 0.8 M mannitol; for the control, seedlings were treated with ½ Murashige and Skoog medium for 1 h. After treatment, samples were quickly frozen, ground in liquid N₂, homogenized in an equal volume of 2× immunoprecipitation (IP) buffer (100 mM Tris.HCl, pH 7.5, 300 mM NaCl, 2 mM EDTA, 0.2% Nonidet P-40, 2× protease mixture; Roche), and then, centrifuged at 30,000×g for 30 min at 4° C. The supernatant was passed through a 0.2-μM filter and centrifuged again at 30,000×g for 30 min at 4° C. After that, the supernatant was incubated with 40 μL 50% (vol/vol) slurry of monoclonal anti-HA agarose with antibody produced in mouse (A2095; Sigma), which was prebalanced with 1×IP buffer. The mixture was inverted for 1 h at 4° C. on a shaker. The agarose was then washed four times with 1×IP buffer, three times with high NaCl buffer (50 mM Tris.HCl, pH 7.5, 500 mM NaCl, 1 mM EDTA), and finally, three times with 1×IP buffer. The protein that had bound to the anti-HA agarose was eluted by HA peptide (ab13835; Abcam) with a concentration of […] in 200 μL 1×IP buffer overnight at 4° C. […]

ABA-insensitive 1 (ABI1) = molecular target: T4, ABA-insensitive 1 (ABI1) (Arabidopsis, UniProt P49597 1-434); test: as above
T4 construct: Endogenous protein in the TAP-MS experiment
T4 sequence (looked up): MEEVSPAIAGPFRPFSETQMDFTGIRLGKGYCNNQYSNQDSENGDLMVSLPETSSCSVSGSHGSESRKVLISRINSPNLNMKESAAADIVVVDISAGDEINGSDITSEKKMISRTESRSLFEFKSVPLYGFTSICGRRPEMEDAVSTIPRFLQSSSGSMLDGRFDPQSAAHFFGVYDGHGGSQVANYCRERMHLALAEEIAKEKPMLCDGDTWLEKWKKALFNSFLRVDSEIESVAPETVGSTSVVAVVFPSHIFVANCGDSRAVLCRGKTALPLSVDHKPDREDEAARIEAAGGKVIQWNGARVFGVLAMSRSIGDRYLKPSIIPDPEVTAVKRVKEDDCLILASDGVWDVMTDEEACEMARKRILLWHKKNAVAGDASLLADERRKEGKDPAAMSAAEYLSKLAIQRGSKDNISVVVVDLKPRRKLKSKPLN
Description: as §1

B1: activating domain (AD) alone (other, UniProt P04386 768-881, looked up)
chain: ANFNQSGNIADSSLSFTFTNSSNGPNLITTQTNSQALSQPIASSNVHDNFMNNEITASKIDDGNNSKPLSPGWTDQTAYNAFGITTGMFNTTTMDDVYNYLFDDEDTPPNPKKE
notes: Negative control prey in the Y2H assay
Does B1 bind [1]?
Result: no binding

B2: SnRK2.6 (protein)
chain: MDRPAVSGPMDLPIMHDSDRYELVKDIGSGNFGVARLMRDKQSNELVAVKYIERGEKIDENVKREIINHRSLRHPNIVRFKEVILTPTHLAIVMEYASGGELFERICNAGRFSEDEARFFFQQLISGVSYCHAMQVCHRDLKLENTLLDGSPAPRLKICDFGYSKSSVLHSQPKSTVGTPAYIAPEVLLKKEYDGKVADVWSCGVTLYVMLVGAYPFEDPEEPKNFRKTIHRILNVQYAIPDYVHISPECRHLISRIFVADPAKRISIPEIRNHEWFLKNLPADLMNDNTMTTQFDESDQPGQSIEEIMQIIAEATVPPAGTQNLNHYLTGSLDIDDDMEEDLESDLDDLDIDSSGEIVYAM
For B2, which “SAG12-LUC expression in protoplasts” value (ABF2, Q9M7Q4) is on record?
Its value is “Expression of SnRK2.6 significantly enhanced the ability of ABF2 to increase SAG12-LUC expression in the presence of ABA”.

B3: HA- and YFP-tagged PYL9 (PYL9-HA-YFP) (receptor)
chain: MMDGVEGGTAMYGGLETVQYVRTHHQHLCRENQCTSALVKHIKAPLHLVWSLVRRFDQPQKYKPFVSRCTVIGDPEIGSLREVNVKSGLPATTSTERLELLDDEEHILGIKIIGGDHRLKNYSSILTVHPEIIEGRAGTMVIESFVVDVPQGNTKDETCYFVEALIRCNLKSLADVSERLASQDITQ
notes: Expressed under the native PYL9 promoter in transgenic Arabidopsis seedlings; also called ProPYL9:PYL9-HA-YFP; not shown: 3HA tag at the C terminus; YFP tag at the C terminus
Does B3 bind (PP2CA)?
Result: binds

Does B3 bind (ABA-insensitive 1 (ABI1))?
Result: binds
